Results from patent publication US20160376333A1 (University of Washington, published 2016).

B3: Epstein-Barr virus BHRF1 a.a. 1-161 with C-terminal avi-6his tag (other)
chain: AYSTREILLALCIRDSRVHGNGTLHPVLELAARETPLRLSPEDTVVLRYHVLLEEIIERNSETFTETWNRFITHTEHVDLDFNSVFLEIFHRGDPSLGRALAWMAWCMHACRTLCCNQSTPYYVVDLSVRGMLEASEGLDGWIHQQGGWSTLIEDNIPGSGLNDIFEAQKIEWHEGSHHHHHH
notes: also called EBV BHRF1; BHRF1-biotin
B4: human Bfl-1 a.a. 1-153 (C4S) with C-terminal avi-6his tag (other)
chain: TDSEFGYIYRLAQDYLQCVLQIPQPGSGPSKTSRVLQNVAFSVQKEVEKNLKSCLDNVNVVSVDTARTLFNQVMEKEFEDGIINWGRIVTIFAFEGILIKKLLRQQIAPDVDTYKEISYFVAEFIMNNTGEWIRQNGGWENGFVKKFEPKSGGLNDIFEAQKIEWHEGSHHHHHH
notes: also called A1/Bfl-1
B5: human Mcl-1 a.a. 172-327 with C-terminal avi-6his tag (other)
chain: GSDELYRQSLEIISRYLREQATGAKDTKPMGRSGATSRKALETLRRVGDGVQRNHETAFQGMLRKLDIKNEDDVKSLSRVMIHVFSDGVTNWGRIVTLISFGAFVAKHLKTINQESCIEPLAESITDVLVRTKRDWLVKQRGWDGFVEFFHVEDLEGGGLNDIFEAQKIEWHEGSHHHHHH
B6: human Bcl-w a.a. 1-182 with C-terminal avi-6his tag (other)
chain: MATPASAPDTRALVADFVGYKLRQKGYVCGAGPGEGPAADPLHQAMRAAGDEFETRFRRTFSDLAAQLHVTPGSAQQRFTQVSDELFQGGPNWGRLVAFFVFGAALCAESVNKEMEPLVGQVQEWMVAYLETQLADWIHSSGGWAEFTALYGDGALEEARRLREGNWASVRTVLTGAVALGAGLNDIFEAQKIEWHEGSHHHHHH
notes: range 1-182; also called BCL2L2

Tests used:
[1] = biological target: B4; assay: ratio of the KD of the next tightest BCL2 protein to the KD of the target, BLI
[2] = biological target: T1, human Bcl-2 a.a. 1-207 with C-terminal avi-6his tag (human, UniProt P10415 2-207); assay: BLI, biotinylated target on streptavidin sensor, range of analyte concentrations
Target sequence in this assay (P10415 other isoform, or with tags, fused parts or gaps limits assumed): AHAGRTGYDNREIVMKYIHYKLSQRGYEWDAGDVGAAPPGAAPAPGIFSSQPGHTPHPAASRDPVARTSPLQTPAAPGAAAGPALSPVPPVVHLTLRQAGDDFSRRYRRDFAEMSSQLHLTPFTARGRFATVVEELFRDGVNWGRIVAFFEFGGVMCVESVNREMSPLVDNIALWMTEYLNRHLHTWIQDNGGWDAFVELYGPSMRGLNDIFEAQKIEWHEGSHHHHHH

[3] = biological target: B6; assay: as above
[4] = biological target: B5; assay: as above
[5] = biological target: B4; assay: as above
[6] = biological target: T2, human Bcl-XL a.a. 1-205 with C-terminal avi-6his tag (human, UniProt Q07817 2-206); assay: as above
T2 construct: also called BCL2L1
T2 sequence (Q07817 other isoform, or with tags, fused parts or gaps limits assumed): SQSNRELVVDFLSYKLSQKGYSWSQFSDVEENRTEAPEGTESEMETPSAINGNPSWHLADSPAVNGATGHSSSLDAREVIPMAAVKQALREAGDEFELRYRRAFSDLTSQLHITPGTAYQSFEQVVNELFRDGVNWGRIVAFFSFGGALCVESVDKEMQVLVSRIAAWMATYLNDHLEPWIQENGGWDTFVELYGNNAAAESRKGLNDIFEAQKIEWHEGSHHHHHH

[7] = biological target: T3, human Bcl-B a.a. 11-175 with C-terminal avi-6his tag (human); assay: as above
T3 construct: also called BCL2L10
T3 chain: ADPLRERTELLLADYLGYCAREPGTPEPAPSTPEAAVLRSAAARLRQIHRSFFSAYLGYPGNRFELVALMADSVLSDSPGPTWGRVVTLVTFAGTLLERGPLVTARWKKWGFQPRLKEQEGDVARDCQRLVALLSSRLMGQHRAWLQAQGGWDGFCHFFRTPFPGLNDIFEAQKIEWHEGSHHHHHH

[8] = biological target: T1, human Bcl-2 a.a. 1-207 with C-terminal …; assay: initial BLI screening (column 'Binds target?')
[9] = biological target: human Bim-BH3 (a.a. 141-166) displayed on yeast (human, UniProt O43521 141-166); assay: yeast surface display titration (apparent KD)
Sequence of human Bim-BH3 (a.a. 141-166) displayed on yeast (O43521 141-166 limits assumed): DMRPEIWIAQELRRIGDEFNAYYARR

[10] = biological target: T4, Bim-BH3 motif fused to the C-terminus of maltose-binding protein (MBP) (human, UniProt O43521 141-166); assay: BLI, biotinylated target on streptavidin sensor, MBP-Bim-BH3 in solution
T4 construct: domain: Bim-BH3 motif; also called MBP-Bim-BH3

[11] = biological target: T3, human Bcl-B a.a. 11-175 with C-terminal …; assay: ratio of the KD of the next tightest BCL2 protein to the KD of the target, BLI
[12] = biological target: B5; assay: yeast surface display titration (apparent KD)
[13] = biological target: B3; assay: yeast display library, FACS sort at 100 nM BHRF1, deep sequencing
[14] = biological target: B3; assay: yeast display library, FACS sort at 400 nM BHRF1, deep sequencing
[15] = biological target: B3; assay: yeast surface display; BHRF1 titrated on clonal yeast showing the design, fluorescence by flow cytometry (apparent KD)
[16] = biological target: B5; assay: BLI at a single analyte concentration (50 nM, 600 s association, then buffer); biotinylated BCL2 protein on a streptavidin sensor

B1: FINDI (designed binder)
chain: ADPKKVLDKAKDQAENRVRELKQKLEELYKEARKLDLTQEKRKKLEVATLGAVLAAHGDILNAIMQAKEEADKLKKAGLVNSQQLDELKRRLEELKEEALRKASDYGNEFHLKRRY
notes: also called αBFL1
Binder B1 has a Specificity [1] of 350 fold, a Kd [2] of 321 nM and a Kd [3] of 7400 nM. The Kd [4] was 1700 nM, the Kd [5] was 0.91 nM and the Kd [6] was 900 nM. It also gave a Kd [7] of 31000 nM.

B2: 2-CDP03 (designed binder)
chain: ADPKKVLDKAKDQAENRVRELKQKLEELYKEARKLDLTQEMRRELKERALAARLQAVGDIFYAILQAKSEADKLKKAGLVNSQQLDELKRRLEELAEEAQRKARDYGIEFALKLEY
B2: binds [8].

Binder B3 has a Kd [9] of 12 nM and a Kd [10] of 7 nM.

B4 was tested, and the Kd [9] was 2.1 nM and the Kd [10] was 0.61 nM.

Work on B5 yielded a Kd [9] of 0.6 nM and a Kd [10] of 0.17 nM.

B6 was tested, and the Kd [9] was 2.1 nM and the Kd [10] was 20 nM.

B7: 10-INDI (designed binder)
chain: ADPKKILDKAKDQVENRVRELKQELERLYKEARKLDLTQEMRRKLHVRYIEAMLKAIAAIMNAIAQAENEADKLKKAGLVNSQQLDELRRRLEELTEEAAQKAHDYGRELQLKLEY
notes: also called αBCLB
For B7, the Specificity [11] was 1010 fold.

B8: BbpD04 (designed binder)
chain: ADWKKVLDKAKDIAENRVREIKQKLEEFYKKAMKLDLTQEMRRKLMLEWIAAMLMAIGDIFNAIEQAKQEADKLKKAGQVNSQLLDELKRRLEELKEEASRKCHDYGREFQLKLEY
B8 gave a Kd [12] of 17 nM.

B9: Index 04 (designed binder)
chain: GLLAEEGREQAEERLREARKKAEKAGDKIKDLAKYGQDSDDEKKKFMLKWIAAQLMVIGDMFNHAMEALWELLRRLKNNKISWDAFLKAKEEIEREEKEAARDSREKGREAAKMIDQG
B9 was tested, and the Log2 enrichment ratio [13] was 2.11 log2, the Log2 enrichment ratio [14] was 1.96 log2 and the Kd [15] was 44 nM.

B10: 2-CDP02 (designed binder)
chain: ADPKKVLDKAKDRAENAVRELKQKLEELYKEARKLDLTQDMRNKLIMKAIAAELRAIGDIFQAILEAKAEAKKLLDAGLVNSQQFDELKRRLEELEEEAAERARKLGDEFRQKLEYG
B10: binds [8].

B11: F-ECM04 (designed binder)
chain: ADPKKVLDKAKDQAENRVRELKQKLEELYKEARKLDLTQEMRKKLEVAALGAVLAAHGDILNAIMQAKEEADKLKKAGLVNSQQLDELKRRLEELKEEALRKASDYGKEFHLKRRYG
B11 gave a Specificity [1] of 91 fold, a Kd [2] of 100 nM and a Kd [3] of 3800 nM. The Kd [4] was 255 nM, the Kd [5] was 1.1 nM and the Kd [6] was 540 nM. For the same binder, the Kd [7] was 4000 nM.

B12: 2-CDP01 (designed binder)
chain: ADPKKVLDKAKDQAENVVRKLKQELEELYKEARKLDLTQDMREKIKLRAEAAELQAIGDIFQAILQAKMEAKKLYDAGLVNSQQLDELKRRLEELAKEAEDRAAKLGKEFLQKLEYG
B12: binds [8].

B13: 2-CDP07 (designed binder)
chain: ADPKKVLDKAKDDAENRVRELKQKLEELYKEARKLDLTQEERDELKLKAIAASLQASGDIYNAILRALEEARKLKKAGLVNSQQLDELKRRLEELAEEAQRKANKLGDEFRLKLEY
B13: binds [8].

B14: M-CDP01 (designed binder)
chain: ADPKKVLDKAKDQAENRVRELKQELEELYKKARKLDLTQEERRKLEEEAIAALLRAIGDIYNAIQQALNEADKLKKAGLVNSQQLDELKRRLEELKKEASKKARDYGLEFFEKLDY
B14: binds [16].

B15: 10-ECM01 (designed binder)
chain: ADPKKILDKAKDQVENRVRELKQELERLYKEARKLDLTQEMRRKLHVRYIAAMLKAIAAILNAIAQAENEADKLKKAGLVNSQQLDELRRRLEELTEEAAQKAHDYGREFQLKLEYG
B15 showed a Specificity [11] of 31 fold, a Kd [2] of 12500 nM and a Kd [3] of 19000 nM. The Kd [4] was 3650 nM, the Kd [5] was 2380 nM and the Kd [6] was 7800 nM. For the same binder, the Kd [7] was 77 nM.

B16: M-CDP05 (designed binder)
chain: ADPKKVLDKAKDQAENRVRELKQKLEELYKEARKLDLTQEERHRLETKALSALLAAIGDILDAIMQALQEAAKLKKAGLVNSQQLDELKRRLEELRKEASRKARDYGREFWLKLDY
B16: binds [16].

B17: 10-CDP01 (designed binder)
chain: ADPKKVLDKAKDQAENRVRELKQELERLYKEARKLDLTQEMRRKLEWRYIAAMLKAIGDILNAIAQAENEADKLKKAGLVNSQQLDELRRRLEELAKEAARKAHDYGREFQLKLEY
notes: also called B-CDP01
With B17 the Specificity [11] was 0.05 fold, the Kd [2] was 14 nM and the Kd [3] was 900 nM. The Kd [4] was 0.47 nM, the Kd [5] was 250 nM and the Kd [6] was 16 nM. The “apparent Kd (pooled screen)” value [7] was 9 nM.
